Reference: paper PMC5870375, “Amyloid-beta modulates microglial responses by binding to the triggering receptor expressed on myeloid cells 2 (TREM2)” (Molecular Neurodegeneration, 2018)

B1: sTREM2-Fc fragment carrying residues 1–71 (Fc fusion, human, UniProt Q9NZC2 19-71, looked up)
chain: HNTTVFQGVAGQSLQVSCPYDSMKHWGRRKAWCRQLGEKGPCQRVVSTHNLWL
notes: signal peptide in the construct; human TREM2, C-terminally truncated extracellular domain, residues 1-71
B2: sTREM2-Fc fragment carrying residues 1–91 (Fc fusion, human, UniProt Q9NZC2 19-91, looked up)
chain: HNTTVFQGVAGQSLQVSCPYDSMKHWGRRKAWCRQLGEKGPCQRVVSTHNLWLLSFLRRWNGSTAITDDTLGG
notes: signal peptide in the construct; human TREM2, C-terminally truncated extracellular domain, residues 1-91
B3: sTREM2-Fc fragment carrying residues 1–111 (Fc fusion, human, UniProt Q9NZC2 19-111, looked up)
chain: HNTTVFQGVAGQSLQVSCPYDSMKHWGRRKAWCRQLGEKGPCQRVVSTHNLWLLSFLRRWNGSTAITDDTLGGTLTITLRNLQPHDAGLYQCQ
notes: signal peptide in the construct
B4: sTREM2-Fc fragment carrying residues 1–151 (Fc fusion, human, UniProt Q9NZC2 19-151, looked up)
chain: HNTTVFQGVAGQSLQVSCPYDSMKHWGRRKAWCRQLGEKGPCQRVVSTHNLWLLSFLRRWNGSTAITDDTLGGTLTITLRNLQPHDAGLYQCQSLHGSEADTLRKVLVEVLADPLDHRDAGDLWFPGESESFE
notes: signal peptide in the construct; human TREM2, C-terminally truncated extracellular domain, residues 1-151
B5: sTREM2-Fc fragment carrying residues 1–51 (Fc fusion, human, UniProt Q9NZC2 19-51, looked up)
chain: HNTTVFQGVAGQSLQVSCPYDSMKHWGRRKAWC
notes: signal peptide in the construct; human TREM2, C-terminally truncated extracellular domain, residues 1-51
B6: sTREM2-Fc fragment carrying residues 1–131 (Fc fusion, human, UniProt Q9NZC2 19-131, looked up)
chain: HNTTVFQGVAGQSLQVSCPYDSMKHWGRRKAWCRQLGEKGPCQRVVSTHNLWLLSFLRRWNGSTAITDDTLGGTLTITLRNLQPHDAGLYQCQSLHGSEADTLRKVLVEVLAD
notes: as for B3

Biological target: T1, oligomeric amyloid-β 1–42 (UniProt P05067 672-713)
T1 construct: amyloid-beta 1-42, cut product of the amyloid precursor protein (APP); numbers count on: the Aβ peptide; Heterogeneous mixture of low-n and high-n oligomers, prepared without separation of monomeric Aβ; also called oAβ_(1–42); oAβ; source: synthetic peptide, bought: AnaSpec (AS-20276); oligomers made by incubation at 22 °C for 16 h, then 4 °C for 24 h, supernatant after 16,000×g
Experiment: ELISA; solid phase binding assay: 96-well plate coated with 100 nM oAβ1-42 in PBS overnight at 4 °C, blocked with 4% BSA; purified Fc or sTREM2-Fc proteins in PBST with 0.5% BSA, 30 min at 37 °C; detected with biotinylated anti-Fc antibody, avidin-HRP, TMB, read at 620 nm
Conditions: both partners purified

Row | Binder | binding result
1 | B1 | binds
2 | B2 | binds
3 | B3 | binds
4 | B4 | binds
5 | B5 | binds
6 | B6 | binds
